Target: Lathyrus sativus β-L-ODAP synthase (LsBOS), N-terminal His-tag (Lathyrus sativus)
Experiment: SPR; Biacore 8K, CM5 chip; LsBOS amine-coupled (~1700 response), LsAAE3 as analyte; single cycle kinetics at 2.4, 12, 60, 300 and 1500 nM; 10 mM Hepes pH 7.4, 150 mM NaCl, 0.05 % tween 20, 25 °C; simple Langmuir binding model

Lathyrus sativus acyl-activating enzyme 3 (LsAAE3), N-terminal His-tag
Kd: 98 nM
koff: 0.000361 s⁻¹
kon: 3670 M⁻¹ s⁻¹
stoichiometry N: 1

Source: paper PMC9935904
